Where no end group is shown, it is not given here.
Molecular target: T1, Bromo1-linker(GGS)5-Bromo2 of BRD4 (UniProt O60885 54-168; O60885 351-457)
T1 construct: BRD4 bromo1; (GGS)5 linker that replaces the stretch between the two bromodomains; BRD4 bromo2; the limits of the two domains in the fusion are not restated; also called Bromo1-linker-Bromo2 of BRD4; source: E. coli, purified using the same procedure as the single bromodomains
Assay: ITC; 3 mM H2A.Z peptides titrated into 0.3 mM bromodomains; 25 °C; 20 mM Hepes-Na pH 7.5, 100 mM NaCl; One Set of Binding Sites model
Settings: both partners purified

fold stronger binding than Bromo1 of BRD4: 6.49 fold
fold stronger binding than Bromo2 of BRD4: 1.7 fold
B1: H2A.ZK4ac7ac11ac peptides cross-linked by a C-terminal cysteine (peptide)
chain: AGGK(Ac)AGK(Ac)DSGK(Ac)AKTKC
modifications: also: cross-linked via C-terminal cysteine

From paper PMC9033776, “Chromatin profiling in human neurons reveals aberrant roles for histone acetylation and BET family proteins in schizophrenia” (Nature Communications, 2022)
